The record followed here is paper PMC3184956, “How to Change the Oligomeric State of a Circular Protein Assembly: Switch from 11-Subunit to 12-Subunit TRAP Suggests a General Mechanism” (PLoS ONE, 2011).

Data set [1] has as its target Bacillus stearothermophilus E71stop TRAP (Bacillus stearothermophilus). In words: crystal structure; hanging drop vapor diffusion at 18°C, protein with 5-15 mM L-tryptophan; data at 120 K; ring oligomer built from the asymmetric unit and crystallographic symmetry.
Data set [2] has the same target. In words: native MS; nanoflow electrospray, 100 mM ammonium acetate (pH 7.5), 10 µM L-tryptophan, protein 0.1–0.4 mg/ml.
In data set [3] the target is Bacillus halodurans trp RNA-binding attenuation protein (TRAP) (Bacillus halodurans). In words: crystal structure; hanging drop vapor diffusion at 18°C, protein with 5-15 mM L-tryptophan; data at 120 K; ring oligomer built from the asymmetric unit and crystallographic symmetry.
The target is the same in data set [4]. Nature of the data set: native MS; nanoflow electrospray, 100 mM ammonium acetate (pH 7.5), 10 µM L-tryptophan, protein 0.1–0.4 mg/ml.
Data set [5] deals with the molecule itself. Described as above.
Data set [6] deals with the molecule itself. In words: crystal structure; hanging drop vapor diffusion at 18°C, protein with 5-15 mM L-tryptophan; data at 120 K; ring oligomer built from the asymmetric unit and crystallographic symmetry.

Consider “Bacillus stearothermophilus E71stop TRAP (domain or fragment)”, for which the stoichiometry N in data set [1] and in data set [2] was 12 subunits throughout.

Take “Bacillus halodurans trp RNA-binding attenuation protein (TRAP) (natural protein)”: the stoichiometry N in data set [3] and in data set [4] was 12 subunits each time.

B1: Bacillus subtilis V11L TRAP (natural protein, UniProt P19466 1-75, looked up)
chain: MNQKHSSDFVLIKAVEDGVNVIGLTRGTDTKFHHSEKLDKGEVIIAQFTEHTSAIKVRGEALIQTAYGEMKSEKK
notes: TRAP of Bacillus subtilis with the mutation Val11 to Leu; Homo-12-mer by native mass spectrometry; could not be crystallised; also called V11L mutant; B. subtilis V11L TRAP; source: QuikChange on a pET9a plasmid containing the wild type gene; produced and purified as described previously [10]; copies: 12
B1: in data set [5], the “stoichiometry N” value came out at 12 subunits.

B2: Bacillus stearothermophilus TRAP, wild type (natural protein, UniProt Q9X6J6 1-74, looked up)
chain: MYTNSDFVVIKALEDGVNVIGLTRGADTRFHHSEKLDKGEVLIAQFTEHTSAIKVRGKAYIQTRHGVIESEGKK
notes: Homo-11-mer; control of the native mass spectrometry; also called B. stearothermophilus TRAP; TRAP11; source: pET9a plasmid containing the wild type gene; produced and purified as described previously [10]; copies: 11
For the molecule B2, the “stoichiometry N” value in data set [5] stood at 11 subunits.

B3: Bacillus subtilis K71stop TRAP (domain or fragment, UniProt P19466 1-71, looked up)
chain: MNQKHSSDFVVIKAVEDGVNVIGLTRGTDTKFHHSEKLDKGEVIIAQFTEHTSAIKVRGEALIQTAYGEMK
notes: TRAP of Bacillus subtilis with the last four amino acids removed from the C-terminus (K71stop); Homo-12-mer; also called B. subtilis TRAP K71stop; mutant B. subtilis TRAP; source: QuikChange on a pET9a plasmid containing the wild type gene; produced and purified as described previously [10]; size-exclusion chromatography (Superdex 200); copies: 12
B3: the “stoichiometry N” value in data set [6] turned out to be 12 subunits.

For orientation: stoichiometry N means a count of units in the complex or per binding partner.
